The record followed here is the supplement of paper PMC10567573.

B1: TRIM39 (parent)
chain: YPCVLATEGFTSGRHYWEVEVGDK
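Also: lentivirally expressed fusions sorted by FACS into six bins by GFP to DsRed ratio, PSI derived from sequencing read proportions per bin multiplied by bin number.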

The variants in this data set derive from B1. Put plainly: protein stability index of a GFP-peptide fusion (GPS, HEK-293T) (PSI 1-6); higher = more stable. To be noted: c terminus: a fixed tail appended.
Turning to YPCVLATAGFTSGRHYWEVEVGDK, the protein stability index amounted to 1.33.
For YPCVLATYGFTSGRHYWEVEVGDK the value was 1.35; for YPCVLATMGFTSGRHYWEVEVGDK, 2.25.
For YPCVLATSGFTSGRHYWEVEVGDK, the protein stability index is 1.25.
On to YPCVLATEGFFSGRHYWEVEVGDK, for which the protein stability index was 2.55.
As to YPCVLATEGFSSGRHYWEVEVGDK, the protein stability index was 1.58.
For YPCVLATEGFISGRHYWEVEVGDK the value was 2.59.
As for YPCVLATEGFTSGRHYWEVEVGDR, the protein stability index worked out at 1.75.
Consider YPCVLATEGFTSGRHYWEVEVGDL, for which the protein stability index is 2.05.
For YPCVLATEGFTSGRHYWEVEVGDD the value was 1.07.
For YPCVLATEGFTSGRHYWEVEVGDV the value was 1.96.
For YPCVLATEGFTSGRHYWEVEVGDH the value was 1.57; for YPCVLATEGFTSGRHYWEVEVGDT, 2.36; for YPCQLATEGFTSGRHYWEVEVGDK, 1.46.
YPCNLATEGFTSGRHYWEVEVGDK: the protein stability index worked out at 1.85.
For YPCSLATEGFTSGRHYWEVEVGDK the value was 1.61; for YPFVLATEGFTSGRHYWEVEVGDK, 1.86.
For YPSVLATEGFTSGRHYWEVEVGDK the value was 2; for YPNVLATEGFTSGRHYWEVEVGDK, 1.7; for YPLVLATEGFTSGRHYWEVEVGDK, 2.09.
For YPVVLATEGFTSGRHYWEVEVGDK the value was 2.01.
With YPAVLATEGFTSGRHYWEVEVGDK, the protein stability index was determined as 2.05.
Take YPYVLATEGFTSGRHYWEVEVGDK: the protein stability index was determined as 1.98.
For YPCVLATEGFTSGRHYWEVELGDK the value was 1.57.
For YPCVLATEGFTSGRHYWEVEWGDK the value was 1.92; for YPCVLATEGFTSGRHYWEVEDGDK, 2.2.
For YPCVLATEGFTSGRHYWEVEFGDK the value was 1.95.
With YPCVLATEGFTSGRHYWEVWVGDK, the protein stability index amounted to 2.16.
Turning to YPCVLATEGFTSGRHYWEVFVGDK, the protein stability index worked out at 1.93.
As for YPCVGATEGFTSGRHYWEVEVGDK, the protein stability index came out at 1.87.
For IPCVLATEGFTSGRHYWEVEVGDK the value was 2.98.
For QPCVLATEGFTSGRHYWEVEVGDK the value was 3.71; for FPCVLATEGFTSGRHYWEVEVGDK, 1.59; for CPCVLATEGFTSGRHYWEVEVGDK, 2.7.
Consider YPCVLATEGFTSGRHFWEVEVGDK, for which the protein stability index came out at 1.2.
For YPCVLATEGFTSGRHVWEVEVGDK the value was 2.08; for YPCVLATEGFTSGRHGWEVEVGDK, 2.98.
Regarding YPCVLATEGFTSGRHQWEVEVGDK, the protein stability index is 2.16.
For the variant YPCVLATEGFTSGRHLWEVEVGDK, the protein stability index worked out at 1.76.
For YPCVLATEGFTSGRHWWEVEVGDK the value was 4.12; for YPCVLATEGFTSGRHYWEVEVGKK, 1.02; for YPCVLATEGFTSGRHYWEVEVGFK, 1.58.
For YPCVLATEGFTFGRHYWEVEVGDK the value was 1.34; for YPCVLATEGFTHGRHYWEVEVGDK, 1.67.
On to YPCVLATEGFTGGRHYWEVEVGDK, for which the protein stability index came to 1.6.
With YTCVLATEGFTSGRHYWEVEVGDK, the protein stability index was found to be 2.21.
As to YNCVLATEGFTSGRHYWEVEVGDK, the protein stability index came to 2.21.
For YPCVLATEGFTSGRHYWWVEVGDK the value was 2.2.
For YPCVLATEGFTSGRHYWIVEVGDK the value was 1.89; for YPCVLATEGFTSGRHYWGVEVGDK, 2.82; for YPCVLACEGFTSGRHYWEVEVGDK, 1.84.
For YPCVLAQEGFTSGRHYWEVEVGDK the value was 1.56; for YPCVLATEGFTSRRHYWEVEVGDK, 2.09.
YPCVLATEGFTSYRHYWEVEVGDK: the protein stability index stood at 1.2.
For YPCVLATEGFTSGRHYEEVEVGDK the value was 3.84.
For YPCVLATEGFTSGRHYDEVEVGDK the value was 3.88; for YPCVLATEGFTSGRHYIEVEVGDK, 2.95.
Turning to YPCVLATEGFTSGRHYYEVEVGDK, the protein stability index amounted to 2.24.
For YPCVLATEGFTSGRHYSEVEVGDK the value was 3.62.
For YPCVLFTEGFTSGRHYWEVEVGDK the value was 1.27.
For YPCVLGTEGFTSGRHYWEVEVGDK the value was 2.38.
As for YPCVLMTEGFTSGRHYWEVEVGDK, the protein stability index was 1.4.
For YPCVLNTEGFTSGRHYWEVEVGDK the value was 2.47.
Consider YPCVLSTEGFTSGRHYWEVEVGDK, for which the protein stability index stood at 1.44.
For YPCVLVTEGFTSGRHYWEVEVGDK the value was 1.89; for YPCVLATEGKTSGRHYWEVEVGDK, 1.4.
For YPCVLATEGATSGRHYWEVEVGDK the value was 1.55.
For YPCVLATEGRTSGRHYWEVEVGDK the value was 2.41; for YPCVLATEGWTSGRHYWEVEVGDK, 1.85.
Turning to YPCVLATEGFTSGRHYWEVEVFDK, the protein stability index amounted to 1.53.
For YPCVLATEGFTSGRHYWEVEVWDK the value was 2.37; for YPCVLATEGFTSGRHYWEVEVRDK, 1.75; for YPCVLATEGFTSGRHYWEVEVNDK, 1.91.
For YPCVLATEGFTSGRHYWEVEVTDK the value was 1.76; for YPCVLATEGFTSGRRYWEVEVGDK, 1.97.
For YPCVLATEGFTSGRKYWEVEVGDK the value was 2.06; for YPCVLATEGFTSGRWYWEVEVGDK, 2.1; for YPCVLATEGFTSGRMYWEVEVGDK, 1.32.
In the case of YPCVLATEGFTSGRDYWEVEVGDK, the protein stability index came to 2.93.
Regarding YPCVLATEGFTSGRIYWEVEVGDK, the protein stability index is 1.22.
For YPCVLATEGFTSGAHYWEVEVGDK the value was 2.37; for YPCVLATEGFTSGQHYWEVEVGDK, 2.36.
For YPCVLATEGFTSGVHYWEVEVGDK the value was 2.06; for YPCVLATEGFTSGHHYWEVEVGDK, 1.71; for YPCVLATEGFTSGCHYWEVEVGDK, 1.79.
For YPCVLATEGFTSGLHYWEVEVGDK the value was 2.45; for YPCVLATEDFTSGRHYWEVEVGDK, 2.01.
In the case of YPCVLATEQFTSGRHYWEVEVGDK, the protein stability index was 2.04.
For YPCVLATESFTSGRHYWEVEVGDK the value was 1.81; for YPCVLATEFFTSGRHYWEVEVGDK, 2.97; for YPCVLATEGFTSGRHYWEWEVGDK, 2.21.
For YPCVLATEGFTSGRHYWECEVGDK the value was 2.18.
For YPCVLATEGFTSGRHYWEFEVGDK the value was 2.21; for YPCVLATEGFTSGRHYWEIEVGDK, 2.19.
